Data as given in PMC3616104, “Structural and Phylogenetic Studies with MjTX-I Reveal a Multi-Oligomeric Toxin – a Novel Feature in Lys49-PLA2s Protein Class” (PLoS ONE, 2013).

What was measured:
[1] = biological target: the molecule itself; assay: dynamic light scattering; MjTX-I 1.5 mg/ml, 18 °C, 20 mM Tris-HCl pH 8.0
[2] = biological target: the molecule itself; assay: dynamic light scattering; MjTX-I 1.5 mg/ml, 18 °C, 0.5, 2.0 and 10.0 mM Tris-HCl pH 8.0, two hours after addition of the buffer

B1: MjTX-I (myotoxin-I) from Bothrops moojeni venom (natural protein)
chain: SLVELGKMILQETGKNPVTSYGAYGCNCGVLGRGKPKDATDRCCYVHKCCYKKLTDCNPKKDRYSYSWKDKTIVCGENNSCLKELCECDKAVAICLRENLDTYNKKYKNNYLKPFCKKADPC
notes: Myotoxin-I (MjTX-I), Lys49-phospholipase A2 homologue from Bothrops moojeni venom, NCBI GI 17368325; about 14 kDa per monomer; also called Lys49-PLA2
For B1, the “stoichiometry N” value [1] was 4 and the “stoichiometry N” value [2] was 2.
